The values below come from publication PMC6650407 (Scientific Reports, 2019).

Residue numbers refer to the chain shown, from its start. In names and notes the source's numbering stands.

The target in data set [1] is T1, SyFumC (GST-SyFumC; Synechocystis 6803 fumarase C) (Synechocystis sp. PCC 6803, UniProt Q55674, A314E).
T1 construct: gene fumC
Nature of the data set: absorbance at […] nm, saturation curve. The class given is biochemical. Conditions: 100 mM Tris-HCl pH 7.5, 30 °C, no effector.

Data set [2] concerns the target T2, SyFumC (GST-SyFumC; Synechocystis 6803 fumarase C) (Synechocystis sp. PCC 6803, UniProt Q55674).
T2 construct: gene fumC
T2 sequence (Q55674 1-466): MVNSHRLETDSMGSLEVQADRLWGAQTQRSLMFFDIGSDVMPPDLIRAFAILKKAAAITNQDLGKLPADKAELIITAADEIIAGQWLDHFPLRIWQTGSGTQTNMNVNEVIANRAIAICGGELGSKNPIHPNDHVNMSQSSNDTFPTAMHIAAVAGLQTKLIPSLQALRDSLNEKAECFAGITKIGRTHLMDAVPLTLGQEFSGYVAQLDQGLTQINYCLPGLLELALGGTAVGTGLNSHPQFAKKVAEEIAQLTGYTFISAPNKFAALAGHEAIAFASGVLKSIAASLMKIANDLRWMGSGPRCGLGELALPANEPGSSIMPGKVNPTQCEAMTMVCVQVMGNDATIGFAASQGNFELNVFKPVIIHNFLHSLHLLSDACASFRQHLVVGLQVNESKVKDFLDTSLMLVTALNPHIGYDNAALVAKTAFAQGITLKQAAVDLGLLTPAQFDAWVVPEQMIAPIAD
The experiment in a line: absorbance at […] nm, saturation curve. To be noted: 100 mM Tris-HCl pH 7.5, 30 °C, no effector. The data set is classed as biochemical.

The target of data set [3] is T2, SyFumC (GST-SyFumC; Synechocystis 6803 fumarase C). The experiment in a line: inhibition, absorbance at […] nm. Conditions: read-out: % of control activity at 4 mM. The class given is biochemical.
Substrate in data set [4]: O=C(O)C[C@H](O)C(=O)O
Nature of the data set: purified protein. Conditions: 100 mM Tris-HCl pH 7.5, 30 °C, no effector.

T1 sequence (Q55674 whole entry A314E): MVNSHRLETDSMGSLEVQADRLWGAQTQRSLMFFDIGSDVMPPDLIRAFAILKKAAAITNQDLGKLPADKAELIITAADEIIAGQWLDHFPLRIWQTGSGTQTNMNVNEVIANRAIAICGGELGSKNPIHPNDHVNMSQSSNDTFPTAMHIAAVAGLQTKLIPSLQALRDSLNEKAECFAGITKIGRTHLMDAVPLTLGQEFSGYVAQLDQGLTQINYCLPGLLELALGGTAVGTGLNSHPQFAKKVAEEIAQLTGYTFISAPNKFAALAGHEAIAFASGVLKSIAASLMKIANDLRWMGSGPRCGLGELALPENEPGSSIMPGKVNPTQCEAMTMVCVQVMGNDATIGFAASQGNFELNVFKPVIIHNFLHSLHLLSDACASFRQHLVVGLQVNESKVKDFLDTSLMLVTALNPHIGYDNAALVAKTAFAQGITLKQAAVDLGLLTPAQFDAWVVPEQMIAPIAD

As to `O=C(O)/C=C/C(=O)O` [fumarate], the Km in data set [1] was determined as 179 ± 36 µM; in data set [2], 244 ± 26 µM.

Consider `O=C(O)CCC(=O)O` [succinate], for which the remaining activity at 4000 µM in data set [3] was 45 to 58%.

B1: SyFumC (GST-SyFumC; Synechocystis 6803 fumarase C) (Synechocystis sp. PCC 6803 substr. Kazusa) (protein)
chain: T2 sequence (Q55674 1-466)
Consider B1, for which, in data set [4], the Km is 478 ± 112 µM, the kcat was determined as 42.3 s⁻¹ and the kcat/Km is 90300 M⁻¹ s⁻¹.

B2: SyFumC (GST-SyFumC; Synechocystis 6803 fumarase C) (Synechocystis sp. PCC 6803 substr. Kazusa; A314E) (protein)
chain: T2 sequence (Q55674 1-466) with A314E
Take B2: in data set [4], the Km stood at 442 ± 20 µM, the turnover number (kcat) was found to be 21.6 s⁻¹ and the kcat/Km came out at 49000 M⁻¹ s⁻¹.

What is called Km is the substrate concentration at which the rate is half of its maximum. Broadly, the kcat is the maximal rate divided by the concentration of active sites. Broadly, the kcat/Km is the second-order rate constant that governs catalysis at low substrate concentration.
